Experimental data: paper PMC3925836 (Advanced healthcare materials, 2013)

T1: GPSP-P40-I60
T1 chain: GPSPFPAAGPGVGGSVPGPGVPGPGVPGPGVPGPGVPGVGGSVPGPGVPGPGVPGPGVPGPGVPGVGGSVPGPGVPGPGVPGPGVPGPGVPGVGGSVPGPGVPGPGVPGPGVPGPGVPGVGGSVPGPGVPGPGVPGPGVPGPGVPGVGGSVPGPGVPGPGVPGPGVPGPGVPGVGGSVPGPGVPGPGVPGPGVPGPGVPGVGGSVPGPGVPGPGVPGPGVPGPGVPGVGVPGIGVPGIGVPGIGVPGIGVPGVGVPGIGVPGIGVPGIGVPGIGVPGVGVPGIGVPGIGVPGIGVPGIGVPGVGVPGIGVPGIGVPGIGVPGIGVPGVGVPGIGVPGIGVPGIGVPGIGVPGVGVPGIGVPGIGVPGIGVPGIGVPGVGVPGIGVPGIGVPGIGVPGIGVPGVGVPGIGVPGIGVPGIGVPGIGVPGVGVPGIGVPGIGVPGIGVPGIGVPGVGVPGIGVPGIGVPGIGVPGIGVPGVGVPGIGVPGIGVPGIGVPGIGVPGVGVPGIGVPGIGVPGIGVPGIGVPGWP


Legend:
dynamic light scattering = molecular target: the molecule itself; assay: dynamic light scattering
GPSP-P40-I60 = molecular target: T1, GPSP-P40-I60; assay: SYPRO Orange thermal transition assay

binding result (GPSP-P40-I60)	Binder	binding result (dynamic light scattering)
	GPRP-P40-I60 (designed binder) GPRPFPAAGPGVGGSVPGPGVPGPGVPGPGVPGPGVPGVGGSVPGPGVPGPGVPGPGVPGPGVPGVGGSVPGPGVPGPGVPGPGVPGPGVPGVGGSVPGPGVPGPGVPGPGVPGPGVPGVGGSVPGPGVPGPGVPGPGVPGPGVPGVGGSVPGPGVPGPGVPGPGVPGPGVPGVGGSVPGPGVPGPGVPGPGVPGPGVPGVGGSVPGPGVPGPGVPGPGVPGPGVPGVGVPGIGVPGIGVPGIGVPGIGVPGVGVPGIGVPGIGVPGIGVPGIGVPGVGVPGIGVPGIGVPGIGVPGIGVPGVGVPGIGVPGIGVPGIGVPGIGVPGVGVPGIGVPGIGVPGIGVPGIGVPGVGVPGIGVPGIGVPGIGVPGIGVPGVGVPGIGVPGIGVPGIGVPGIGVPGVGVPGIGVPGIGVPGIGVPGIGVPGVGVPGIGVPGIGVPGIGVPGIGVPGVGVPGIGVPGIGVPGIGVPGIGVPGVGVPGIGVPGIGVPGIGVPGIGVPGVGVPGIGVPGIGVPGIGVPGIGVPGWP	binds
binds	GPRP-A80-I60 (designed binder) GPRPFPAAGPGVGVPGAGVPGAGVPGAGVPGAGVPGVGVPGAGVPGAGVPGAGVPGAGVPGVGVPGAGVPGAGVPGAGVPGAGVPGVGVPGAGVPGAGVPGAGVPGAGVPGVGVPGAGVPGAGVPGAGVPGAGVPGVGVPGAGVPGAGVPGAGVPGAGVPGVGVPGAGVPGAGVPGAGVPGAGVPGVGVPGAGVPGAGVPGAGVPGAGVPGVGVPGAGVPGAGVPGAGVPGAGVPGVGVPGAGVPGAGVPGAGVPGAGVPGVGVPGAGVPGAGVPGAGVPGAGVPGVGVPGAGVPGAGVPGAGVPGAGVPGVGVPGAGVPGAGVPGAGVPGAGVPGVGVPGAGVPGAGVPGAGVPGAGVPGVGVPGAGVPGAGVPGAGVPGAGVPGVGVPGAGVPGAGVPGAGVPGAGVPGVGVPGIGVPGIGVPGIGVPGIGVPGVGVPGIGVPGIGVPGIGVPGIGVPGVGVPGIGVPGIGVPGIGVPGIGVPGVGVPGIGVPGIGVPGIGVPGIGVPGVGVPGIGVPGIGVPGIGVPGIGVPGVGVPGIGVPGIGVPGIGVPGIGVPGVGVPGIGVPGIGVPGIGVPGIGVPGVGVPGIGVPGIGVPGIGVPGIGVPGVGVPGIGVPGIGVPGIGVPGIGVPGVGVPGIGVPGIGVPGIGVPGIGVPGVGVPGIGVPGIGVPGIGVPGIGVPGVGVPGIGVPGIGVPGIGVPGIGVPGWP	
binds	GPSP-A80-I60 (designed binder) GPSPFPAAGPGVGVPGAGVPGAGVPGAGVPGAGVPGVGVPGAGVPGAGVPGAGVPGAGVPGVGVPGAGVPGAGVPGAGVPGAGVPGVGVPGAGVPGAGVPGAGVPGAGVPGVGVPGAGVPGAGVPGAGVPGAGVPGVGVPGAGVPGAGVPGAGVPGAGVPGVGVPGAGVPGAGVPGAGVPGAGVPGVGVPGAGVPGAGVPGAGVPGAGVPGVGVPGAGVPGAGVPGAGVPGAGVPGVGVPGAGVPGAGVPGAGVPGAGVPGVGVPGAGVPGAGVPGAGVPGAGVPGVGVPGAGVPGAGVPGAGVPGAGVPGVGVPGAGVPGAGVPGAGVPGAGVPGVGVPGAGVPGAGVPGAGVPGAGVPGVGVPGAGVPGAGVPGAGVPGAGVPGVGVPGAGVPGAGVPGAGVPGAGVPGVGVPGIGVPGIGVPGIGVPGIGVPGVGVPGIGVPGIGVPGIGVPGIGVPGVGVPGIGVPGIGVPGIGVPGIGVPGVGVPGIGVPGIGVPGIGVPGIGVPGVGVPGIGVPGIGVPGIGVPGIGVPGVGVPGIGVPGIGVPGIGVPGIGVPGVGVPGIGVPGIGVPGIGVPGIGVPGVGVPGIGVPGIGVPGIGVPGIGVPGVGVPGIGVPGIGVPGIGVPGIGVPGVGVPGIGVPGIGVPGIGVPGIGVPGVGVPGIGVPGIGVPGIGVPGIGVPGVGVPGIGVPGIGVPGIGVPGIGVPGWP	binds
